Article PMC4793259 (Journal of Extracellular Vesicles, 2016)

Target: epidermal growth factor receptor (Homo sapiens (A431, HeLa cells), UniProt P00533)
Test: flow cytometry on cells

B1: GPI-anchored HA-tagged R2 nanobody (DAF-R2) displayed on Neuro2A extracellular vesicles (VHH)
VHH: QVQLQESGGGLVQAGGSLRLSCAASGRAASGHGHYGMGWFRQVPGKEREFVAAIRWSGKETWYKDSVKGRFTISRDNAKTTVYLQMNSLKGEDTAVYYCAARPVRVADISLPVGFDYWGQGTQVTVSS
B1: no binding (tested: 5 µg/mL).
